Measured values reported in the supplement of paper PMC9170038.

System: MS2 coat protein
Test: apparent KD of MS2 coat protein; designed switch direction (-1 OFF switch, 1 ON switch): 1; higher = weaker reporter binding
Method in brief: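 RNA switches sharing common flanks were transcribed by stalled E. coli RNA polymerase on Illumina chips. A doubling series of SNAP-549-labelled MS2 coat protein, from 0.7 or 1.5 nM to 3 µM, was applied in Tris-HCl pH 7.5 buffer with KCl, MgCl2, BSA, DTT, tRNA and Tween-20. Each step lasted 0.8–1.5 h at the bottom of the series and 10–20 min at the top. Normalised cluster fluorescence was curve-fitted, giving apparent KD as the per-design median over clusters.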

[1] = input ligand: microRNA oligo, concentration not stated
[2] = Eterna round: R95, input ligand: FMN 200 uM
[3] = Eterna round: R95, input ligand: microRNA oligo, concentration not stated
[4] = Eterna round: R95, input ligand: none

Row | Sequence | apparent KD of MS2 coat protein (input ligand: FMN 200 uM) [nM] | apparent KD of MS2 coat protein [1] [nM] | apparent KD of MS2 coat protein (input ligand: none) [nM] | apparent KD of MS2 coat protein [2] [nM] | apparent KD of MS2 coat protein [3] [nM] | apparent KD of MS2 coat protein [4] [nM]
1 | GGAAACAAGAGAGGAUAUGCAGAGGAUCACCCUGCAGAAGGCUCCCUAGAGAGGAUAUGCAGAGGAUCACCCUGCAGAAGGCUC [pwkr ssNG DX.25] (Eterna round: R96, puzzle: Same State NG 1) | 4.46 | 9.9 | 24.6 | – | – | –
2 | AACAAUCUAUCUGAGGAUAUCAUGAAAUAUACAUGAGGAUCACCCAUGUGCAGGAAAACUGCAUAUGAGAAGGCAGAUAGAUUGA [salish99_ss2_r3_034] (puzzle: Same State 2) | – | – | – | 59 | 612 | 3190
3 | GUGGUCAGACAUGAGGAUCACCCAUGUGGAAUAAAUAAGGAAAAGGAUAUUCAAUAUAGGAUAUAGAAGAAGGUUUGGUUGGUG (Eterna round: R96, puzzle: Same State NG 3) | – | 73.5 | – | – | – | –
4 | UUUAGAUUCAGAGGAUAUUGAUGUUGUAUUUUACAAGAAGGCUGAUUGGUUUGAAAUGUUAUUAAACAUGAGGAUCACCCAUGU [JR_SSNG1_Sub012] (Eterna round: R96, puzzle: Same State NG 1) | 31.7 | 32.3 | 44.5 | – | – | –
5 | GGUCCAGCCUGAGCUGGACUACAGCAUGUACAUGAGGAUCACCCAUGUCAUGUACAUGUUUUUUGUUUGUCUUAAAA [Sensorship 9 - Jieux - Sensor for hsa-mir-208a] (Eterna round: R96, puzzle: Sensor for hsa-mir-208a) | 200 | 57.5 | 503 | – | – | –
6 | ACAUGAGACGUAGGAUAUAUUGUACCUACAUGUGACAUGAGGAUCACCCAUGUGGUAAGUAUGACAUAGAAGGACGAGAUAUGU [Equivalance 94 - Jieux - Same State NG 2] (Eterna round: R96, puzzle: Same State NG 2) | 48.6 | 49.7 | 64.3 | – | – | –
7 | AGUCUACGGAAACGUAGACAGUGGAGCGUACAUGAGGAUCACCCAUGUCAUGUGAGAGCUACUUGUUCGUCUUGAGC [SENSOR #5] (puzzle: Sensor for hsa-mir-208a) | – | – | – | 26.4 | 18.5 | 26.8
8 | AGUCCAGCCUGAGCUGGACAAAAGCAUGUACAUGAGGAUCACCCAUGUUCAUGUACAAGCUUUUUGCUCGUCUAAAA [Mat - hsa-mir-208a - Mod of JL - 50] (puzzle: Sensor for hsa-mir-208a) | – | – | – | 414 | 16.2 | 540
9 | GGAGCCGGCCUAGGAUAUUUCAUAUUAAAACAUGAGGAUCACCCAUGUAGGCCAGAAGGCCUUGGGAAGAAGGAGGUCGGCUCC [Loop Effect - U25,U26] (Eterna round: R96, puzzle: Same State NG 2) | 15.2 | 50.7 | 87.8 | – | – | –
10 | GGUGUACAUGAGGAUCACCCAUGUCGACCGCUCACAGGAUAUUUAAUACAAACUGGUAGCGGAGAAGGGUGAGGAA [Oresbeve] (puzzle: Same State 1) | – | – | – | 164 | 95.7 | 247
11 | AACAAUCUAUCUGAGGAUAUCAUGAAAAAAACAUGAGGAUCACCCAUGUGCAGGAAAACUGCAUAUGAGAAGGCAGAUAGAUUGG [salish99_SS2_r3_003] (puzzle: Same State 2) | – | – | – | 23.2 | 589 | 814
12 | GCUACCAUUGAAGCCAACAUGAGGAUCACCCAUGUAUGUUGGUAGGAUAUCGUUUGCAAAGCAAACGAGAAGGGCUAAGGUAGC [Mat - Same State NG 3 - JL Mod - D79] (Eterna round: R96, puzzle: Same State NG 3) | 83.5 | 42.1 | 74.4 | – | – | –
13 | GACAAUCUAUCUGAGGAUAUCAUGAGAAGAACAUGAGGAUCACCCAUGUGCAGGAAAACUGCAUAUGAGAAGGCAGAUAGAUUGG [Mat - Same State 2 - Mod - D17] (puzzle: Same State 2) | – | – | – | 47.8 | 607 | 3570
14 | AACAAUCUAUCUGAGGAUAUCAUGAAAAAAACAUGAGGAUCACCCAUGUGCAGGAAAACUGCAUAUGAGAAGGCAGAUAGAUUGG [salish99_SS2_r3_003] (Eterna round: R96, puzzle: Same State 2) | – | 494 | – | – | – | –
15 | GUUGAGAAAUAAGGAUAUACAUGGAAGACACAUGAGGAUCACCCAUGUGGGAGGGAAACCAGGAGGUAGAAGGUAUUGGGAAAC [AK SSNG2-V2-23] (Eterna round: R96, puzzle: Same State NG 2) | 33.1 | 24.1 | 43.7 | – | – | –
16 | GAGAGAGGGUGAGGAUAUUCGGUGAUAAUGAUGGGAGAAGGCACAGACAUGAGGAUCACCCAUGUGGGAAUAAUCCAGAGAGAG [Parity 12 - Jieux - Same State NG 1] (Eterna round: R96, puzzle: Same State NG 1) | 138 | 83 | 181 | – | – | –

Row | Sequence | apparent KD of MS2 coat protein (input ligand: FMN 200 uM) [nM] | apparent KD of MS2 coat protein [1] [nM] | apparent KD of MS2 coat protein (input ligand: none) [nM] | apparent KD of MS2 coat protein [2] [nM] | apparent KD of MS2 coat protein [3] [nM] | apparent KD of MS2 coat protein [4] [nM]
17 | UGUUUGUUGUGAGGAUAUACAUACACCUUACAUGAGGAUCACCCAUGUUGUAAUUUUGAUAGUUAGUAGAAGGCACUUGGUUAU [JR_SSNG2_Sub045] (Eterna round: R96, puzzle: Same State NG 2) | 35.2 | 64.3 | 71.5 | – | – | –
18 | AGAAUGCACAUGAGGAUCACCCAUGUACCCGGCUGGCAUUUGCAGGAUAUGCCGCGGCGAGCCCAGCAGAAGGGCAAGUGCUAA [Eternabot solution 4] (Eterna round: R96, puzzle: Same State NG 3) | 25.8 | 19 | 26.9 | – | – | –
19 | AAUAUAUUAAGUGAGGAUAUCAUAGAAAAAACAUGAGGAUCACCCAUGUGGGAAACCUGGUCGGGUGAGAAGGCACUUAAUAUAU [Samwise Clockwise 29 - Jieux - Same State 2] (Eterna round: R96, puzzle: Same State 2) | 85.2 | 823 | 1280 | – | – | –
20 | GGGCCAGCUUGUGCUGGGCCUUCGCAUGCACAUGAGGAUCACCCAUGUCGUGUACAUGCUUUUUGCUCGUCUUUAAA [Photon Torp-11] (puzzle: Sensor for hsa-mir-208a) | – | – | – | 39.6 | 14 | 40.8
21 | GUGGUCAGACAUGAGGAUCACCCAUGUGGAAUAAAUAAGGAGAAGGAUAUGAAAUAUAGGAUAUAUCAGAAGGUCUGGUUGGUG (Eterna round: R96, puzzle: Same State NG 3) | – | 59.9 | – | – | – | –
22 | GGUCCAGCCUGAGCUGGACAAAAGUAUGUACAUGAGGAUCACCCAUGUCAUGUACAAGCUUUUUGCUCGUCUUAAAA [JL mod - D87 - 9] (puzzle: Sensor for hsa-mir-208a) | – | – | – | 430 | 22.4 | 486
23 | UGUUGUAUUACAGGAUAUCUAUGAUUUUUAUAUAGAGAAGGGUAUUCACAUGAGGAUCACCCAUGUAUAUACGAGGAAGUUGUG [JMF's solution 68] (Eterna round: R96, puzzle: Same State NG 1) | – | 39.6 | – | – | – | –
24 | GGAGAGAGAGCGCAGGAUAUUCAAGGAGAGACAUGAGGAUCACCCAUGUAAGAGAGAGAGGAGAGGGAGAAGGGUGAGAGAGAGG [Altered State 2-12 - Jieux - Same State 2] (puzzle: Same State 2) | – | – | – | 28.5 | 27.8 | 22
25 | GGACGUCGAUAAUAUAACUUCACAUGAGGAUCACCCAUGUCACAGGAUAUGGAUCCUAAUUGGAUCCAGAAGGGUGCGACGUCC [Fiskers NG3ss - 36] (Eterna round: R96, puzzle: Same State NG 3) | 20.7 | 61.8 | 88.8 | – | – | –
26 | UCAAGCGUUUGGCUCGUCUUAUGUUUGGUACAUGAGGAUCACCCAUGUUAUGUACGAUCCAGUUAGAUGGUAUUUUG [JR_SHM208A_Sub037] (puzzle: Sensor for hsa-mir-208a) | – | – | – | 35.9 | 127 | 47.1
27 | GUGGUCAGACAUGAGGAUCACCCAUGUGGAAUAAAUAACACACAGGAUAUGUAAUAUAGGAUAUAACAGAAGGGUGGAUUGGUG (Eterna round: R96, puzzle: Same State NG 3) | – | 297 | – | – | – | –
28 | AGCUAUCGCGUACGAUAGCUGAAGCGUGUACAUGAGGAUCACCCAUGUCAUGUGCAGGCUUUUUGCUCGUCUUAUUG [JL-shm-2.31 JL mod] (puzzle: Sensor for hsa-mir-208a) | – | – | – | 640 | 17.2 | 648
29 | GAUAGACAUGAGGAUCACCCAUGUGACAAAACCACAGGAUAUCACACAGGAGUAACUGCGUGAGAAGGGUGAGACU [Edatinti] (puzzle: Same State 1) | – | – | – | 109 | 13.4 | 32.4
30 | UGAGCCGGCACUGAGGAUAUUCAUAUUUAAACAUGAGGAUCACCCAUGUAGGCCAGAAGGCCUUGGGAGAAGGCAGGUCGGCUCU [salish99_ss2_r3_078] (puzzle: Same State 2) | – | – | – | – | 258 | –
31 | AACAAUUUAUCUGAGGAUAUCAUGAAAUAAACAUGAGGAUCACCCAUGUGCAGGAAAACUGCAUAUGAGAAGGCAGAUAGAUUGA [salish99_ss2_r3_023] (puzzle: Same State 2) | – | – | – | 53.5 | 821 | 1890
32 | AGGGUACAUGAGGAUCACCCAUGUGGGUCGGUCGCAGGAUAUGCCCGUGGGCGCUGGCGGGCAGAAGGGUGCCGAA [Same State1-IX] (Eterna round: R96, puzzle: Same State 1) | 81.4 | 187 | 341 | – | – | –
